In PMC11547827 (2024) one finds Kd data, which are given here for two molecules.

Bridges are numbered along the chain shown (N, C = ends). Where no end group is shown, it is not given here.

This assay has as its target T1, TNFR1 (Homo sapiens, UniProt P19438).
T1 chain: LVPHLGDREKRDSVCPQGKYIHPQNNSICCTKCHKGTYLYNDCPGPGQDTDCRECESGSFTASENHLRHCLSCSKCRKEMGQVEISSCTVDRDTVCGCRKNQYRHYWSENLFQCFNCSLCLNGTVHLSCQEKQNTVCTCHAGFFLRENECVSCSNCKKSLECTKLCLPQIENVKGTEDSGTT
Briefly: ELISA.

Turning to YCWSQYLCY (disulfide 2-8 (inferred)) [WP9QY], the dissociation constant Kd was determined as 1150 nM.
With CTISRIAVSYQTKVNRLSC (disulfide 1-19) [L16R (α_CC8 L16R cyclic peptide)], the Kd is 177 nM.
